Legend:
[1] = target: 7D8-E430G (human); test: dynamic light scattering; 7D8 and mutants in PBS pH 7.4 up to 100 mg/mL, 25°C; linear regression of diffusion coefficient versus antibody concentration; self-association
[2] = target: 7D8-E345K (human); test: as above

| Substance | interaction parameter from regression of the diffusion coefficient versus concentration [1] | interaction parameter from regression of the diffusion coefficient versus concentration [2] |
| --- | --- | --- |
| 7D8-E430G (antibody) | -0.0126 mL/g |  |
| 7D8-E345K (antibody) |  | -0.0174 mL/g |

Reference: article PMC4703389
